Test results: article PMC11187106, “Master corepressor inactivation through multivalent SLiM-induced polymerization mediated by the oncogene suppressor RAI2” (Nature Communications, 2024)
Substitutions are numbered along the chain they refer to.

How the values were obtained:
Settings in all cases: both partners purified
[1] = target: CtBP1(WT, FL) (human, UniProt Q13363 1-440); assay: ITC; VP-ITC, 25 °C, 50 mM HEPES (pH 7.2), 150 mM NaCl; CtBP in the cell (10 µM for RAI2 M1 or M2, 20 µM for the WT RAI2 constructs), RAI2 in the syringe (100 µM); mean of three independent measurements ± SD
[2] = target: CtBP1(K46W) (human, UniProt Q13363 1-440, K46W); assay: as above
[3] = target: CtBP1(WT, FL) (human, UniProt Q13363 1-440); assay: ITC; VP-ITC, 25 °C, 50 mM HEPES (pH 7.2), 150 mM NaCl; CtBP1 in the cell (20 µM for WT RAI2, 10 µM for M1 or M2), RAI2(303-362) variants 100 µM in the syringe; mean of three independent measurements
[4] = target: T1, CtBP1(WT, FL) (human, UniProt Q13363 1-440); assay: ITC; VP-ITC, 25 °C, 50 mM HEPES (pH 7.2), 150 mM NaCl; CtBP in the cell (10 µM for M1 or M2, 20 µM for WT RAI2 constructs), RAI2 constructs in the syringe (100 µM); mean of three measurements
[5] = target: CtBP1(K46W) (human, UniProt Q13363 1-440, K46W); assay: as above
[6] = target: T1, CtBP1(WT, FL); assay: SEC; analytical Superose 6 3.2/300 GL, 50 mM HEPES (pH 7.2), 150 mM NaCl; CtBP kept at 100 µM, RAI2 variants titrated at 1:0.1, 1:0.2, 1:0.5, 1:1 and 1:2
[7] = target: CtBP1(WT, FL) (human, UniProt Q13363 1-440); assay: ITC; VP-ITC, 25 °C, 50 mM HEPES (pH 7.2), 150 mM NaCl; CtBP in the cell (10 µM for RAI2 M1 or M2, 20 µM for the WT RAI2 constructs), RAI2 in the syringe (100 µM); mean of three independent measurements ± SD; remark: listed apart in the source

B1: RAI2(WT, 303-362) (domain or fragment)
chain: SRHTVIKMGSENEALDLSMKSVPWLKAGEVSPPIFQEDAALDLSVAAHRKSEPPPETLYD
notes: this construct came from the same vector (pETGB1a, TEV site) and may carry the same residues; source: E. coli BL21 DE3 LOBSTR, purified (HisTrap, TEV cleavage, Superdex 75); not shown: His6, N-terminal, cleaved
Kd [1]: 1.1 µM
stoichiometry N [1]: 0.42
Kd [2]: 4.5 µM
stoichiometry N [2]: 0.26

B2: RAI2(WT, 303-362) (domain or fragment)
chain: B1 chain
notes: Cloned in pETGB1a with a TEV site; also called Retinoic Acid-Induced 2; source: E. coli BL21 DE3 LOBSTR, purified (HisTrap, TEV cleavage, Superdex 75); not shown: His6, N-terminal, cleaved
Kd [3]: 1.09 µM
stoichiometry N [3]: 0.42

B3: RAI2(WT, 303–362) (domain or fragment, human, UniProt Q9Y5P3 303-362, looked up)
chain: B1 chain
notes: 15N/13C-labelled for NMR; A residue of the TEV site (ENLYFQG) may remain at the N-terminus; PDB 8ARI holds the Δ11 variant of the same limits; source: E. coli BL21 DE3 LOBSTR, purified (HisTrap, TEV cleavage, Superdex 75); not shown: His6, N-terminal, cleaved
fold change in binding stoichiometry against M1 and M2 [4]: ~2 fold
fold increase in binding affinity against M1 and M2 [4]: 5 fold
stoichiometry N [4]: 0.5
stoichiometry N [5]: < 0.3

B4: RAI2(M1, 303–362) (domain or fragment)
chain: B1 chain with L17A, S18A
notes: 15N-labelled for NMR; PDB 8ARI holds the Δ11 variant of the same limits; source: E. coli BL21 DE3 LOBSTR, purified (HisTrap, TEV cleavage, Superdex 75); not shown: His6, N-terminal, cleaved
Kd [4]: ~5 µM

B5: RAI2(M2, 303-362) (domain or fragment)
chain: B1 chain with L43A, S44A
notes: source: E. coli BL21 DE3 LOBSTR, purified (HisTrap, TEV cleavage, Superdex 75); not shown: His6, N-terminal, cleaved
Kd [3]: 3.87 µM
stoichiometry N [3]: 0.836

B6: RAI2(M1, 303-362) (domain or fragment)
chain: B1 chain with L17A, S18A
notes: as for B5
Kd [1]: 5.5 µM
stoichiometry N [1]: 0.78

B7: RAI2(M1, 303-362) (domain or fragment)
chain: B1 chain with L17A, S18A
notes: as for B5
Kd [3]: 5.53 µM
stoichiometry N [3]: 0.785

B8: RAI2(M2, 303-362) (domain or fragment)
chain: B1 chain with L43A, S44A
notes: as for B5
Kd [1]: 3.9 µM
stoichiometry N [1]: 0.84

B9: RAI2(M2, 303–362) (domain or fragment)
chain: B1 chain with L43A, S44A
notes: as for B4
Kd [4]: ~5 µM

B10: RAI2(WT, 303-465) (domain or fragment)
chain: SRHTVIKMGSENEALDLSMKSVPWLKAGEVSPPIFQEDAALDLSVAAHRKSEPPPETLYDSGASVDSSGHTVMEKLPSGMEISFAPATSHEAPAMMDSHISSSDAATEMLSQPNHPSGEVKAENNIEMVGESQAAKVIVSVEDAVPTIFCGKIKGLSGVSTKN
notes: this construct came from the same vector and may carry the same residues; source: E. coli BL21 DE3 LOBSTR, purified (HisTrap, TEV cleavage, Superdex 75); not shown: His6, N-terminal, cleaved
Kd [1]: 1.5 µM
stoichiometry N [1]: 0.32

B11: RAI2(M1, 303–465) (domain or fragment)
chain: B10 chain with L17A, S18A
notes: PDB 8ATI holds the M2 variant of the same limits; source: E. coli BL21 DE3 LOBSTR, purified (HisTrap, TEV cleavage, Superdex 75); not shown: His6, N-terminal, cleaved
binding result [6]: binds

B12: RAI2(M2, 303–465) (domain or fragment)
chain: B10 chain with L43A, S44A
notes: only residues 315-321 (EALDLSM) are seen in the crystal structure; source: E. coli BL21 DE3 LOBSTR, purified (HisTrap, TEV cleavage, Superdex 75); not shown: His6, N-terminal, cleaved
binding result [6]: binds

B13: RAI2(WT, 303-530) (domain or fragment)
chain: SRHTVIKMGSENEALDLSMKSVPWLKAGEVSPPIFQEDAALDLSVAAHRKSEPPPETLYDSGASVDSSGHTVMEKLPSGMEISFAPATSHEAPAMMDSHISSSDAATEMLSQPNHPSGEVKAENNIEMVGESQAAKVIVSVEDAVPTIFCGKIKGLSGVSTKNFSFKREDSVLQGYDINSQGEESMGNAEPLRKPIKNRSIKLKKVNSQEIHMLPIKKQRLATFFPRK
Kd [7]: 1.5 µM
stoichiometry N [7]: 0.34

B14: RAI2(WT, 303–530) (domain or fragment)
chain: B13 chain
notes: as for B5
binding result [4]: binds

B15: RAI2(Δ11, 303-362) (domain or fragment, UniProt Q9Y5P3 303-362, looked up)
chain: SRHTVIKMGSENEALDLSMKSVPWLKAGALDLSVAAHRKSEPPPETLYD
notes: as for B5
Kd [1]: 0.8 µM
stoichiometry N [1]: 0.41
Kd [2]: 7.2 µM
stoichiometry N [2]: 0.29
